For experiment [1], the target named is Aquifex aeolicus TatC (Aquifex aeolicus).
The target is the same in experiment [2]. The experiment is described as follows: ITC. In general terms: Isothermal titration calorimetry measures the heat released or taken up as one component is titrated into another.

Read-outs that look alike come from different tables or passages of the source.

Sequence of Tat signal peptide of the E. coli protein SufI (P26648 1-27 limits assumed): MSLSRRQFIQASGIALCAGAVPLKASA

In turn, Aquifex aeolicus TatC (natural protein) displayed a stoichiometry N in experiment [1] of 2. In experiment [2], “Tat signal peptide of the E. coli protein SufI” gave a Kd of 3000 nM and a stoichiometry N of 1.

Broadly, the stoichiometry N is the number of molecules, sites or subunits per partner or assembly. As a reminder, the Kd is the concentration at which binding is half-saturated. Lower therefore signals higher affinity.
